# In US20100034738A1 (IMMUNOMEDICS, published 2010):
# T1: CD20 (human B lymphocyte-restricted differentiation antigen, Bp35) (human) (UniProt P11836)
# T1 sequence (looked up): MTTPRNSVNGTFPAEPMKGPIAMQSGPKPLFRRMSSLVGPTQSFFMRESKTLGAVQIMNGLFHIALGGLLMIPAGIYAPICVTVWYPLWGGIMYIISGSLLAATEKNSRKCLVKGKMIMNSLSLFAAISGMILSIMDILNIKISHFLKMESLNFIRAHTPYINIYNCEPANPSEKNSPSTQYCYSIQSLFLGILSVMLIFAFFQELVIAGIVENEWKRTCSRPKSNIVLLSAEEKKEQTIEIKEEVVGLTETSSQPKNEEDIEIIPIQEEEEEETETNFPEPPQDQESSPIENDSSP
# T2: CD20 (human B lymphocyte-restricted differentiation antigen, Bp35) (human, UniProt P11836 1-297)
# T2 construct: whole, on cells; Endogenous CD20 on lymphoma cell lines; also called cell-surface CD20
# T2 sequence (looked up): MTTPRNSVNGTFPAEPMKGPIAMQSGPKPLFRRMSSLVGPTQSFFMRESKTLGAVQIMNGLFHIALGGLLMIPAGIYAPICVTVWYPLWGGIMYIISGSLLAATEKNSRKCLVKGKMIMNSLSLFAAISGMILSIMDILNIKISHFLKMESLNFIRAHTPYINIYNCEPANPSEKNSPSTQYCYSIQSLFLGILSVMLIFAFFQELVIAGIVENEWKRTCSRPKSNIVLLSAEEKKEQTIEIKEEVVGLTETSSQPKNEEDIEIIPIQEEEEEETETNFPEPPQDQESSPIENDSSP
# Columns and labels:
# [1] = target: T1, CD20 (human B lymphocyte-restricted differentiation antigen, Bp35) (human); test: flow cytometry, PE-labelled MAb dissociating from Raji cells, without competing veltuzumab-Fab'-NEM
# [2] = target: T2, CD20 (human B lymphocyte-restricted …); test: as above
# Description: (§1) Cells (Daudi, Raji, or Ramos) in 0.5 mL of CM (phenol red-free RPMI 1640 media supplemented with 10% FBS) at 1×10⁶ cells/mL were incubated with 5 μg of each PE-labeled MAb at room temperature for 30 min, pelleted at 400×g, washed twice with CM, resuspended in 1.5 mL of CM, and split into two 0.75-mL aliquots. […] Subsequent measurements were taken at 30-min intervals. The percent maximal binding, which is the quotient of the MFI at T=X divided by that at T=0, was plotted against time, and the results analyzed by Prism software (GraphPad Software Inc., San Diego, Calif.) to yield the half-life or off-rates.
# [3] = target: T2, CD20 (human B lymphocyte-restricted …); test: saturation binding of 125I-labelled MAb to Raji cells, nonlinear regression / Scatchard; apparent KD, replicate assays
# Description: (§2) Raji cells (5×10⁵) were incubated with radioiodinated MAbs in an assay volume of 225 μl, using tissue culture media as diluent, for 1 h at 37° C. or room temperature. Cells then were washed twice with PBS containing 1% horse serum, and cell pellets were counted in a gamma counter. The MAbs were titrated at a 2:3 serial dilution starting with approximately 2×10⁶ cpm/2 μg MAb/tube, run in triplicate. Non-specific binding was measured by including replicate unlabeled MAb.
# [4] = target: T2, CD20 (human B lymphocyte-restricted …); test: direct cell-surface saturation binding of 125I-labelled MAb to Raji cells; non-linear regression, one-site binding model (Prism); one representative of three experiments
# Description: FIG. 4. […] Bₘₐₓ and Kd were determined by non-linear regression analysis using a one-site binding model with Prism software.
# as §2
# [5] = target: T2, CD20 (human B lymphocyte-restricted …); test: flow cytometry, dissociation of PE-labelled MAb from live Daudi cells at 37 C with excess veltuzumab Fab'-NEM; % T=0 MFI against time, one-phase exponential decay fit [table, column Daudi]
# Description: (§3) FIG. 5. […] The off-rate was determined by non-linear regression (one phase exponential decay) and P-values were generated by F-test using GraphPad Prism software.
# as §1
# [6] = target: T2, CD20 (human B lymphocyte-restricted …); test: flow cytometry, dissociation of PE-labelled MAb from live Ramos cells at 37 C with excess veltuzumab Fab'-NEM; % T=0 MFI against time, one-phase exponential decay fit [table, column Ramos]
# Description: as §3, §1
# [7] = target: T2, CD20 (human B lymphocyte-restricted …); test: flow cytometry, dissociation of PE-labelled MAb from live Raji cells (exp 1) at 37 C with excess veltuzumab Fab'-NEM; % T=0 MFI against time, one-phase exponential decay fit [table, column Raji (exp 1)]
# Description: as §3, §1
# [8] = target: T2, CD20 (human B lymphocyte-restricted …); test: flow cytometry, dissociation of PE-labelled MAb from live Raji cells (exp 2) at 37 C with excess veltuzumab Fab'-NEM; % T=0 MFI against time, one-phase exponential decay fit [table, column Raji (exp 2)]
# Description: as §1
# [9] = target: T2, CD20 (human B lymphocyte-restricted …); test: flow cytometry off-rate on lymphoma cells, with or without a competitive binder (summary of Example 5)
# Description: as §1
# [10] = target: T1, CD20 (human B lymphocyte-restricted differentiation antigen, Bp35) (human); test: cell-based or functional assay
# anti-idiotype antibodies = test: binding of radioiodinated MAb to anti-idiotype antibodies
# [11] = target: T2, CD20 (human B lymphocyte-restricted …); test: flow cytometry, PE-labelled MAb dissociating from Daudi, Ramos and Raji cells at 37 C with excess veltuzumab-Fab'-NEM
# Description: as §1
# [12] = target: T2, CD20 (human B lymphocyte-restricted …); test: flow cytometry, PE-labelled MAb dissociating from Raji cells at 37 C with excess veltuzumab-Fab'-NEM
# Description: as §1
molecule,measurement,setting,value
"1F5, murine anti-CD20 monoclonal antibody",dissociation half-life,[1],195 min
"rituximab (chimeric anti-CD20, c2B8) (antibody, V domains shown, Commercial chimeric antibody; also called IDEC-c2B8; Rmab) VH: QVQLQQPGAELVKPGASVKMSCKASGYTFTSYNMHWVKQTPGRGLEWIGAIYPGNGDTSYNQKFKGKATLTADKSSSTAYMQLSSLTSEDSAVYYCARSTYYGGDWYFNVWGQGTTVTVSS VL: QIVLSQSPAILSASPGEKVTMTCRASSSVSYIHWFQQKPGSSPKPWIYATSNLASGVPVRFSGSGSGTSYSLTISRVEAEDAATYYCQQWTSNPPTFGGGTK",dissociation half-life,[2],94 min
same,Kd,[3],6.7 to 8.63 nM
same,Kd,[4],8.62 nM
same,Dissociation Rates (T 1/2 Min),[5],20.1 min
same,Dissociation Rates (T 1/2 Min),[6],19 min
same,Dissociation Rates (T 1/2 Min),[7],24.3 min
same,Dissociation Rates (T 1/2 Min),[8],21.4 min
"cA20, chimeric anti-CD20 antibody (antibody, V domains shown) VH: QVQLQQPGAELVKPGASVKMSCKASGYTFTSYNMHWVKQTPGRGLEWIGAIYPGNGDTSYNQKFKGKATLTADKSSSTAYMQLSSLTSEDSAVYYCARSTYYGGDWYFDVWGQGTTVTVSS VL: DIQLTQSPAILSASPGEKVTMTCRASSSVSYIHWFQQKPGSSPKPWIYATSNLASGVPVRFSGSGSGTSYSLTISRVEAEDAATYYCQQWTSNPPTFGGGTKLEIK","off-rate, fold slower than rituximab or D101N",[9],~2.5 fold
same,Dissociation Rates (T 1/2 Min),[5],58.8 min
same,Dissociation Rates (T 1/2 Min),[6],54.8 min
same,Dissociation Rates (T 1/2 Min),[7],62 min
"V102Y, variant of hA20 with Val to Tyr at Kabat position 102 in the CDR3 of VH (antibody, name in Kabat numbering, V domains shown) VH: QVQLQQSGAEVKKPGSSVKVSCKASGYTFTSYNMHWVKQAPGQGLEWIGAIYPGNGDTSYNQKFKGKATLTADESTNTAYMELSSLRSEDTAFYYCARSTYYGGDWYFDYWGQGTTVTVSS VL: DIQLTQSPSSLSASVGDRVTMTCRASSSVSYIHWFQQKPGKAPKPWIYATSNLASGVPVRFSGSGSGTDYTFTISSLQPEDIATYYCQQWTSNPPTFGGGTKLEIK","ADCC (% lysis), Daudi targets, Donor 001",[10],47.5 % lysis
same,"ADCC (% lysis), Daudi targets, Donor 006",[10],24.2 % lysis
same,"ADCC (% lysis), Daudi targets, Donor 009",[10],33.4 % lysis
"veltuzumab (hA20), humanized anti-CD20 antibody (antibody, V domains shown, It was 125I-labelled in the Scatchard assay and PE-labelled (Zenon kit) in the off-rate assay; also called v-mab; Vmab) VH: QVQLQQSGAEVKKPGSSVKVSCKASGYTFTSYNMHWVKQAPGQGLEWIGAIYPGNGDTSYNQKFKGKATLTADESTNTAYMELSSLRSEDTAFYYCARSTYYGGDWYFDVWGQGTTVTVSS VL: DIQLTQSPSSLSASVGDRVTMTCRASSSVSYIHWFQQKPGKAPKPWIYATSNLASGVPVRFSGSGSGTDYTFTISSLQPEDIATYYCQQWTSNPPTFGGGTKLEIK",immunoreactivity,anti-idiotype antibodies,> 90%
same,dissociation half-life,[2],281 min
same,"off-rate, fold slower than rituximab or D101N",[9],~2.5 fold
same,"dissociation half-life, fold longer than rituximab",[11],2.7 fold
same,Kd,[3],6.23 to 12 nM
same,Kd,[4],10.8 nM
same,Dissociation Rates (T 1/2 Min),[5],54.4 min
same,Dissociation Rates (T 1/2 Min),[6],57 min
same,Dissociation Rates (T 1/2 Min),[7],59.1 min
same,Dissociation Rates (T 1/2 Min),[8],61.8 min
"YDE, Fc variant of V102Y with S239D and I332E in the CH2 domain (antibody, name in Kabat numbering, V domains shown) VH: QVQLQQSGAEVKKPGSSVKVSCKASGYTFTSYNMHWVKQAPGQGLEWIGAIYPGNGDTSYNQKFKGKATLTADESTNTAYMELSSLRSEDTAFYYCARSTYYGGDWYFDYWGQGTTVTVSS VL: DIQLTQSPSSLSASVGDRVTMTCRASSSVSYIHWFQQKPGKAPKPWIYATSNLASGVPVRFSGSGSGTDYTFTISSLQPEDIATYYCQQWTSNPPTFGGGTKLEIK","ADCC (% lysis), Daudi targets, Donor 001",[10],58.3 % lysis
same,"ADCC (% lysis), Daudi targets, Donor 006",[10],31.5 % lysis
same,"ADCC (% lysis), Daudi targets, Donor 009",[10],54.5 % lysis
"D101N, mutant of veltuzumab with Asp to Asn at Kabat position 101 in CDRH3 (antibody, name in Kabat numbering, V domains shown, Same CDRs as rituximab and identical FRs to veltuzumab; also called D101N-hA20) VH: QVQLQQSGAEVKKPGSSVKVSCKASGYTFTSYNMHWVKQAPGQGLEWIGAIYPGNGDTSYNQKFKGKATLTADESTNTAYMELSSLRSEDTAFYYCARSTYYGGDWYFNVWGQGTTVTVSS VL: DIQLTQSPSSLSASVGDRVTMTCRASSSVSYIHWFQQKPGKAPKPWIYATSNLASGVPVRFSGSGSGTDYTFTISSLQPEDIATYYCQQWTSNPPTFGGGTKLEIK",dissociation half-life,[2],42 min
same,"off-rate, fold faster than rituximab",[12],2 fold
same,"off-rate, fold faster than veltuzumab",[12],6 fold
same,Dissociation Rates (T 1/2 Min),[8],9.4 min
